Here are results for 1 molecule from paper doi:10.1101/2020.06.30.178921 (bioRxiv, 2020).

The target in this test is CH848TF gp120 monomeric protein (HIV-1 CH848 transmitted-founder …, UniProt A0A1W6IPB2, strain, N-linked glycans). The test is described as follows: ELISA. (ELISA stands for enzyme-linked immunosorbent assay.)

B1: 2G12 IgG (antibody, V domains shown)
VH: EVQLVESGGGLVKAGGSLILSCGVSNFRISAHTMNWVRRVPGGGLEWVASISTSSTYRDYADAVKGRFTVSRDDLEDFVYLQMHKMRVEDTAIYYCARKGSDRLSDNDPFDAWGPGTVVTVSP
VL: DVVMTQSPSTLSASVGDTITITCRASQSIETWLAWYQQKPGKAPKLLIYKASTLKTGVPSRFSGSGSGTEFTLTISGLQFDDFATYHCQHYAGYSATFGQGTRVEIK
On to B1, for which the binding result is “binds”.
